Assay results: US12156889B2, “Methods of administering mesenchymal stem cells activated by cytokines for enhancing immunosuppression” (Rutgers, The State University of New Jersey, priority 2012, dated 2024)
Entries after “also recorded” stand apart in the source; their conditions may differ.

System: CD4+ T cell blasts
Test: T cell blast proliferation in co-culture with MSCs (3H-thymidine incorporation)
Format: cell-based, mouse
Experimental: FIG. 1. is a graph showing that immunosuppression by MSCs is induced by proinflammatory cytokines. Cloned MSCs were supplemented with the indicated combinations of recombinant cytokines (20 ng/ml each) for 8 hours, then co-cultured with CD4+ T cell blasts at a 1:20 ratio (MSC:T cells), and proliferation assessed after an additional 8 hours. Values represent means±SD of five wells from a representative of three experiments with different clones. * p<0.001.
FIGS. 9A, 9B, 9C, 9D, 9E, 9F and 9G. (FIG. 9A). Cloned MSCs were first treated with the indicated combinations of recombinant cytokines IFNγ, TNFα, IL-17A (2 ng/ml each) for 12 hr, then cocultured with CD4^+ T cell blasts at a 1:20 ratio (MSC:T cells), and proliferation was assessed by 3H-thymidine incorporation after an additional 12 hr. (FIG. 9B). The mRNA expression of IL-17 receptor family members in MSCs or Raw 264.7 (Macrophages) were examined by RT-PCR. NC: No RT. (FIG. 9C). Surface expression of IL-17RA was detected by immunofluoresence or flow cytometry in cloned MSCs. (FIGS. 9D and 9E). MSCs were first treated with IFNγ and TNFα with or without IL-17A (10 ng/ml), IFNγ and TNFα were supplemented at different cytokine concentrations, for 12 hr, and then cocultured with CD4^+ T cell blasts (FIG. 9D) or T cell hybridoma A1.1 cells (FIG. 9E) at a ratio of 1:20 for 12 hr. T cell proliferation was measured by 3H-Tdr incorporation. (FIG. 9F). MSCs were first treated with IFNγ and TNFα (2 ng/ml) with graded concentrations of IL-17A, for 12 hr, and then cocultured with T cell hybridoma A1.1 cells at a ratio of 1:10 for 12 hr. T cell proliferation was measured by 3H-thymidine incorporation. (FIG. 9G). MSCs were cocultured with fresh C57BL/6 splenocytes plus anti-CD3, anti-CD28, and antibodies against IL-17A, at a 1:20 or 1:40 ratio (MSCs:splenocytes), for 48 hr, and then cell proliferation was assessed by 3H-thymidine incorporation. Proliferation values represent means±SEM of three wells from a representative of three experiments.
T cell blasts were generated from CD4^+ T cells purified by negative selection with […] T cell subset isolation kits (R&D Systems). Cells (1×10^6 cells/ml) were activated by plastic-bound anti-CD3 and soluble anti-CD 28 for 48 hours, then cultured with IL-2 (200 U/ml) alone for 48 hours. All T cell cultures were maintained in RPMI-1640 medium supplemented with 10% heat-inactivated FBS, 2 mM glutamine, 100 U/ml penicillin, 100 μ·g/ml streptomycin, and […] (complete medium).
Since most reported studies of immunosuppression by MSCs are based on their effects on T cell proliferation and cytokine production, the effect of MSCs was first examined on the IL-2-driven proliferation of T cell blasts. Fresh CD4^+ T cell blasts were generated from splenocytes by activation with anti-CD3 followed by expansion with IL-2 for several days (Devadas, et al. (2006) Immunity 25:237-247; Radvanyi, et al. (1996) Cell Immunol. 170:260-273). T cell blasts were added at a 1:20 ratio (MSC:T cells) along with IL-2 (200 U/ml). Cell proliferation was assessed by ^3H-Tdr incorporation after 8 hours. […] MSCs also had no effect on the proliferation of T hybridoma A1.1 cells. These T cells blasts and T hybridoma cells, however, produce no cytokines unless reactivated through the TCR (Fotedar, et al. (1985) J. Immunol. 135(5):3028-33). Thus, in the absence of T cell cytokines, MSCs were unable to suppress T cell proliferation.
The effect of IFNγ was then tested directly by adding isolated recombinant IFNγ (20 ng/ml) instead of activated splenocyte supernatant to the mixed co-cultures of MSC+ T cell blasts or MSC+A1.1 cells. […] Therefore, induction of the immunosuppressive function of MSCs by anti-CD3-activated splenocyte supernatant may be due to IFNγ acting in concert with either TNFα; IL-1α; or IL-1β on the MSCs. […]

B1: IL-17A: recombinant mouse interleukin 17A (protein)
chain: AAIIPQSSACPNTEAKDFLQNVKVNLKVFNSLGAKVSSRRPSDYLNRSTSPWTLHRNEDPDRYPSVIWEAQCRHQRCVNAEGKLDHHMNSVLIQQEILVLKREPESCPFTFRVEKMLVGVGCTCVASIVRQAA
- T cell proliferation after MSC treatment with low-concentration cytokines (2 ng/ml each, 12 hr, then 1:20 MSC:T cells): cannot induce immunosuppression; also recorded: markedly enhanced
- IFNγ and TNFα concentrations (as low as) at which IL-17A enhances the immunosuppressive effect of MSCs (10 ng/ml IL-17A, CD4+ T cell blasts or A1.1): 1 to 2 ng/mL
- immunosuppression at higher concentrations of IFNγ and TNFα (IFNγ and TNFα 10-20 ng/ml): still improved immunosuppression
